# Test results from the DeepSol protein solubility set.
# Test: soluble on expression in E. coli; label from the status in PepcDB or PDB records
row,Sequence,soluble on expression in E. coli
1,MSLGSVKIVSDLPLQGANRAQTISMVNAIRLAIDQRGGKVAGLKIEYESLDDATAQSGQWDEGKCAENAQQAAQDEEIVGWIGPFNSGCAAVEIPILNEAGLVMISPANTYVGLTKEGGEPDEPDKYYPTGQRNYTRVIPADDKQGRLAAVLMREEGVRTVFILDDRETYGKGLADQVQKSAEEFGIEVVGRQGIDGSASNYRGLMNRVREANPDAIYFGGIIENNAGQLVRDKVGAGMPNDEVLFIGPDGIFVDTFIEQAGDAAEGAYVTFGGIPPERLGERGQRFIEEYNAKYPDDPIQAYTAYAYEAANVLLDAIERAQKADGEVNRENVLREVFATENYKGVLGTWSFDENGDTTLTKLSVQRVQNGEFKLDRVLDVSREGHHHHHH,soluble
2,MGSDKIHHHHHHMNFKEALEGIKLVLESKAVPLLVGESGIGKTSLVKKLSKDEEYYYINIDGNLLKEGEIGGLPVVQDYGDEKSLIKKTVYAAYYKFIKIDEILKNNPNQKVLLFIDEINRCEHSVQQEIMNIILNREINGYKLKDNITVIAAMNPSSKYDEFEESDYQVNDMDPAQEDRFVWIYLESDVNNWIEWGHERINGESRIHEDILGFIASFPEYLSTPNSKESIKATPRSWERVSNIYKAYIKKKTKVSRNIFYNLIRGNVGTSIAQDFINYIDESKSPLLTPEDIFANDCISEDIKDRIRKESHSRLFLSAKNILFYLENKEDRSREVEIFSEFLSLYPNDLKLGIMQNIKSDSSKKLYKEFLENTSFLENFFLMYEGIED,not soluble
3,AGYPPASPSNLSCLMHLTTNSLVCQWEPGPETHLPTSFILKSFRSRADCQYQGDTIPDCVAKKRQNNCSIPRKNLLLYQYMAIWVQAENMLGSSESPKLCLDPMDVVKLEPPMLQALDIGPDVVSHQPGCLWLSWKPWKPSEYMEQECELRYQPQLKGANWTLVFHLPSSKDQFELCGLHQAPVYTLQMRCIRSSLPGFWSPWSPGLQLRPTMKA,soluble
4,MTIEFINCAGCKAKIAEEDVEKNKVVFFLNRMWHRDHIQCIFCKLQISDNRYFRSSIDPMKPSCYACHIQTNHPSCTGCSLPVIERGLVAFNRLFHIDCFRCAICNKTIPQRKGFYERDMMFYDDVCYMLHIKDVL,not soluble
5,MRTLTIEPLTKDAFAPFGDVIETDGSDHFMINNGSTMRFHRLAEVDTAQPDDKAIISIFRAESLPMPLTIGMLERHPQGSQAFIPLLGNPFLIVVAPVGDAPESALTRAFVSNGRQGVNYHRGVWHHPVLTIEKQDDFLVVDRSGSGNNCDEHYFEENQRLVLDPNPQEGLEHHHHHH,soluble
6,EAQIYGYVEKATLIDQNLTLSAKLDTGAKSASLHAVNITEIEKKGIPYLRFTVPTKTGDYSFEGEYVGKVKIKVRSSETNPGLLRTTPIKRPVVLLNIKLGDKVRTIKVNLTNRKRFLYPLLLGRDAIIDFNGAVDPALTFTTKSK,not soluble
7,MGSDKIHHHHHHMNLKQITYFLAVAEAGQMTAAAKQLHMAQPPLSYQLKALEDELGVRLFERGSRGVRLTGSGQQFMTYAQQIVETVAAAENAARRSGEGEIGTLALGLTSSAGDVLPKQKLQAFNRRYPQVEFALYEDNTYGILDKLRRNILDLAIVRTPFNDDGLASCRLSSDHMIAVAAASQPLPATLTIPDLKQQPLIVYRRFSSLFKTTFAEYGITPIIAVLCDDARTALHWAQMGMGVALVPATMAALASQQSHLAVIDYEPWVTHMTLVWQPEALHNPLVARFVGQLSGGESEKYSK,not soluble
8,TLNIVITGAKGFVGKNLKADLTSTTDHHIFEVHRQTKEEELESALLKADFVVHLAGVNRPEHDKEFSLGNVSYLDHVLDILTRNTKKPAILLSSSIQATQDNPYGESKLQGEQLLREYAEEYGNTVYIYRWPNLFGKWCKPNYNSVIATFCYKIARNEEIQVNDRNVELTLNYVDDIVAEIKRAIEGTPTIENGVPTVPNVFKVTLGEIVDLLYKFKQSRLDRTLPKLDNLFEKDLYSTYLSYLPSTDFSYPLLMNVDDRGSFTEFIKTPDRGQVSVNISKPGITKGNHWHHTKNEKFLVVSGKGVIRFRHVNDDEIIEYYVSGDKLEVVDIPVGYTHNIENLGDTDMVTIMWVNEMFDPNQPDTYFLEV,soluble
9,MSLSLFQAILTSMEPREGGEKVFPSDLMIARKTKTGIIYPVFLSDDNIDYARAVISVFTLNTGKKKEVIENNLKEIELKFQNAKIIRALSLIMMRKSIFVPPVNIDAQALREYIFSMARIPPINSNEREMILKSAAESFNIDYIDIENAIYADKDSESILERPYNTDEGKLIREYNLEQLETVLLKCTELNISNASDWHFVITMIRRLGLLYEIKNDGDKIISVNITGPMALFENTERYGSKFSMLIRSIYKMNEWSLTASIKVKDFSGDKNIYTLKLSDSAKFFLPPGTIKPEHLPEHVSRGYPIIINNKFYFPDYIIDLDERIYVSINSDEKPDNLNWINVYILSDRDKKKPGSIAFYNDMDWDELFNLISKKRNLSSEIDNYSIDEIKKKLDQIYPDSQGMIDYLESQGLIPLRVLPELGYKIKWKNLDIIIEKAEGHHHHHH,not soluble
10,DNSVDLYFLMGLSGSAQGHLSNVQTLGSDLLKALNEISRSGRIGFGSIVNMTFQHILKLTADSSQFQRELRKQLVSGKLATPKGQLDAVVQVAICLGEIGWRNGTRFLVLVTDNDFHLAKDKTLGTRQNTSDGRCHLDDGMYRSRGEPDYQSVVQLASKLAENNIQPIFVVPSRMVKTYEKLTTFIPKLTIGELSDDSSNVAQLIRNAYSKL,soluble
11,MGSDKIHHHHHHMKQSKKIIITCAVTGSIHTPTMSPYLPITPEEIVKEGVAAAEAGAAMLHLHARDPLNGRPSQDPDLFMRFLPQLKERTDAILNITTGGGLGMSLDERLAPARAARPEVASMNMGSLNFNISQAAAKFDTFKFDWERPYLAGTRDFILSNTFSQIERGMTELGASGTRFEFECYDVGHLYNLAHFVDRKLVEPPFFLQCVFGILGGIGADPENLLHMRTIADRLFGQDYYLSVLAAGRHQMPFVTMSAILGGNVRVGLEDSLYSGKGQLATSNAEQVRKIRRIIEELSLDIATPDEARAMLKTKGANETSF,not soluble
12,MSSEKEYVEMLDRLYSKLPEKGRKEGTQSLPNMIILNIGNTTIIRNFAEYCDRIRREDKICMKYLLKELAAPGNVDDKGELVIQGKFSSQVINTLMERFLKAYVECSTCKSLDTILKKEKKSWYIVCLACGAQTPVKPL,soluble
13,MAVPPTYADLGKSARDVFNKGYGFGLVKLEVKTKSSSGVEFTSSGSSNTDTGKASGNLETKYKMKETGLTFTQKWNTDNTLGTEVALEDKLAKGLKLSLDTTFVPNTGKKSAKLKTSYKRDYANLGIDIDLDLAGPTIYGWGVLGYQGWLAGYQMAFDTAKSRLAQNNFALGYTAGDFQLHTNVNDGTEFGGSVYQKVSKDVETSVSLAWSAGSNNTRFGIGAKYQLDSNTTISAKVNNASLIGVGYTQTLRPGVKLTLSALVNGKNFSAGGHKVGLGFELEA,not soluble
14,MAHHHHHHMASFNSLGSGAGDSAEAVTRLQEVLRDICATERRQEKTWLNVQPCVLNAVKLLATTAQVYAERVRQLEDVLQRLQQYTTVLVRDREVKEERYRLDAAAHREEADELWKRLLRLEAQQQEPSLQIDQRASEAFKASCKVAVEARVAPLQQELQGLRHRLKALTLSRPYSSHYNRHVRSSSVASNSSALTMRDHYYAGSDGVAASQHHHHSAASSSSTSSLLSLASSTASSLDRHEQYPRRGRIETTSAPAFTPRALASATAAASPSTQRMMREVQRLRRQWQHFLQSVPAALAQGKGSCRAGLRRRDISGSPSRRLSRLTSKGGRRDLTGGLSDVTRANGEGMESIRGSSPQPFYVPAHHPPSSSPTDAVLPKYSSGPTRARSGARATESSTALPASGRRVRWYWLGDAHSHFSTAVRRAENDFAAAKPLSERPQPALSGVSPALPWTECHAFDGRTDCWYSLGTWPTHRRHLREVERAVEEGASRNSGDVSLGWLKWTLSLVSWPDTSTMLVHRAGIYMVRVCLVRHCASASLCSGAGRAESAGHDCGSGGALALCMNGVAVAGLREVVTHALLYTHPATSPADSAAPWWVTRGRSRSTCAYAGNYCSAVDGAAHSPACASPGGSPSRRRFHRDIADATQRQRPCCEPAQLHTNTLTACLFLPAGATLQVRCRGLHNTKTIHEAFCELEYVV,not soluble
15,MLTMKDVIREGDPILRNVAEEVVIPASEEDTNTLKEMIEFVINSQDPEMAEKYSLRPGIGLAAPQIGISKKMIAVHVTDTDGTLYSHALFNPKIISHSVERTYLQSGEGCLSVDREVPGYVPRYTRITVKATSINGEEVKLRLKGLPAIVFQHEIDHLNGVMFYDHINKENPFAAPDGSKPLER,not soluble
16,MSDGIPFAGEPADSHEAIMRATFRALREYGYAGLSIQRIADEADLSKSTFYHHFDGKEDLLLSFQEFILTEFNRIFQIESTGDPEQDIKTFVSLILDDFPDCVETPTKNAVLGSYVEMRAQAVQNPDFREKFTETDELFARQLVQIIEDGIEQGVFADVDPDTVSRFMITILDGVILQSATRNDNPVAEVRDTIDEYIEETLILNT,not soluble
17,MGSDKIHHHHHHMSSPSLGTEQVFPQQALLDPVLLRAFVAVADSGSFTRAAAATHLTQSTVSQQLKRLEQQLGCELLSRKGRYAMPTADGERLLGYARQILALMAEAGMTPAQPPLLRLAVAEDFAGTALMPILKKLITRFPSVKLEVQSGLSKPLYQAFQEGVVELALIKQRQGEHPAKACWPEALSWLAAADWQAVKAGEPVPLIAFPAGGLYRNEMAQLLDEAGIPWRLVYSSNSLEGVLCAVAAGMGVSLLPSRFIRAREHREITALPRATAMELALHLASSPGAELQWLADEIGAYCDRLSSGGSSVSCPNTSA,not soluble
18,MGSDKIHHHHHHMEMKMQQIDILRKLSEVWRLFGDMPDDTTLSVDLAALYLGISVKTLARYRQSGGGPSYIQYQSEGSQARNQRVNYLLKDLRSWRDNHKVSNTMHAAQVRGLAFDSLLDFCKPQPFWQVTDKSSSRDKSKILSHALTIPDDDFKKKLLEPNADIVWISIEEALFNEWQTADERQKWNDIFKEFLNEIISASNAAQEKHILNAILK,not soluble
19,MRTILIDWFSDAVREYIFRNEAVHLAVSLVDRALPMFNINKMRFQLVGITSMRIAVKYEEIFPPILSNTRHSFDGAILYWKVRLHRRNAHTILDRIMLCTENELYKKDAECCQTPRAVADRFSFSTLPPI,not soluble
20,MSNFWVIALNKNWATLDQVKEAYYYDDVTKEELKEGVDNNLITPEQYQEIVGEAYTSVTLSTELEHHHHHH,not soluble
21,MSWKIIEKYRRILAQEEGNSPKRRGGKLTVCLVYPNRYGVAMSNLGFQAVHALLNAESDILCERAFLPDPDDLREYRRSGARLLSLESQEPLSSFDIIAFSVSFESDYLNIPVIFDLAGIPALAAERTGSHPLVMGGGAALFLNPEPVADFLDLIVVGEGEAILPTFLDHIRADGIGDRAMFLAGVAGLPGIYVPSLYATEYDGARLVSREAKDGAPEQVKRIWMAEPDGRATVSEILTPGTEFSDMYLVEVSRGCGRGCRFCAAGFIYHPYRQRSLDAVKAAVAEGLSHRRKIGLVGAAVSDFREIGELCRHILAEGGTVSVSSLRIDRLDEGMIEVLKASGHKTVALAPEGGSQRIRDLINKNLTEEQILAACDLLIGHDILNLKLYFIIGLPTETMDDLEEMALLVEKIRKRVIAAARKNKRLGEIILSVNPFVPKPFTPFQWCGMEDTPSLEKKLKYLQQTVGRLSNVRLIAESPKDAWLQALLSRGDRRLSGFLLRAAELGNWKRAAREFPVDTDFLVHRTIPLDEMLPWDVIASADAERLRREYLKATPPRLEHHHHHH,not soluble
